Experimental data as given in patent US20260250651, “CAS12 PROTEINS AND USES THEREOF” (GUANGZHOU REFORGENE MEDICINE CO., LTD., published 2026).
Changes are numbered by the printed parent chain.

T1: Cas12i-99 (N295R,N260R,G705R,D590R)
T1 chain: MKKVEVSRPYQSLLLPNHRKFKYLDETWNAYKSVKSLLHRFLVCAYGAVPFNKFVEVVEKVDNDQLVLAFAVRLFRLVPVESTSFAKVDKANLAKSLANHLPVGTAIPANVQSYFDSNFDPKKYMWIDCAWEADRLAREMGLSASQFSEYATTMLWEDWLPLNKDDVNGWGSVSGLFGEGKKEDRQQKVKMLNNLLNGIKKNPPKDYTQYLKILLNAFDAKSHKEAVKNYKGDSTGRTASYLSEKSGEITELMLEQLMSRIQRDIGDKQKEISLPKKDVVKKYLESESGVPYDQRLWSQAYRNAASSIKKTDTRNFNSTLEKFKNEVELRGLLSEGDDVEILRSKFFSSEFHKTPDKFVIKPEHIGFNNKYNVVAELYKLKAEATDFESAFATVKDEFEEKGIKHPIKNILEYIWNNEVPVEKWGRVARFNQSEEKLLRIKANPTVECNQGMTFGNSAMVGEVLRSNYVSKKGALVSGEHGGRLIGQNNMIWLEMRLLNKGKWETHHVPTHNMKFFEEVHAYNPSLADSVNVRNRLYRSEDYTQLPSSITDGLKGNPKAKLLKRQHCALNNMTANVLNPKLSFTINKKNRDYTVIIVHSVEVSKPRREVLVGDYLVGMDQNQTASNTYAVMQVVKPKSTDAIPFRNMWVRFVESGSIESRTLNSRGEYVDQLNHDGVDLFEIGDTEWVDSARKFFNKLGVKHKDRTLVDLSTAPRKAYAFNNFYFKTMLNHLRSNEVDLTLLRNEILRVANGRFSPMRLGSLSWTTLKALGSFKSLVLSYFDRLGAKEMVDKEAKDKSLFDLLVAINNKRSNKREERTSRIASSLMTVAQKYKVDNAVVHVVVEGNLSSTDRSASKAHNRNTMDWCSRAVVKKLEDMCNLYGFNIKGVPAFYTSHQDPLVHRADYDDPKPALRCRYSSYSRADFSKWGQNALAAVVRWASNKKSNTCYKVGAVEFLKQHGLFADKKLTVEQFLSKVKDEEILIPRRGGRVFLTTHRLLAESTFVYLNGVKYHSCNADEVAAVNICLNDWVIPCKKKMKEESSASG

T2: Cas12i-133 (N295R,N260R,G705R,Q971E)
T2 chain: T1 chain with R590D, Q971E

B1: gRNA-TTR ; TTR target (ssRNA ; dsDNA)
RNA: AGAGAAUGUGUGCAUAGUCACACCAGUAAGAUUUGGUGUCUAU
DNA 1: CAGTAAGATTTGGTGTCTAT
DNA 2: ATAGACACCAAATCTTACTG
B2: gRNA-HBB ; HBB target (ssRNA ; dsDNA)
RNA: AGAGAAUGUGUGCAUAGUCACACUAUGCAGAAAUAUUGCUAUUGCCU
DNA 1: TATGCAGAAATATTGCTATTGCCT
DNA 2: AGGCAATAGCAATATTTCTGCATA
B3: gRNA-HBG ; HBG target (ssRNA ; dsDNA)
RNA: AGAGAAUGUGUGCAUAGUCACACACAAGGCAAACUUGACCAAU
DNA 1: ACAAGGCAAACTTGACCAAT
DNA 2: ATTGGTCAAGTTTGCCTTGT

Molecular target: T1, Cas12i-99
Experiment: cell_activity; 293T indels
Description: (§1) Plating: The 293T cell line was plated when the confluence reached 70-80%, and the number of cells seeded in a 24-well plate was 5*10\hat{ }5 cells/well.
(§2) Transfection: After 12-14 hours of plating, transfection was performed. 100 μl of Opti-MEM, 1.5 μl of PEI (Yisheng Bio, Polyethylenimine Linear (PEI) MW25000), 250 ng of the mutant clone plasmid from Example 2, and 250 ng of gRNA plasmid for targeting endogenous genes were added to each well of a 24-well plate. The mixture was incubated at room temperature for 20 minutes and then added to 293T cells for transfection. After transfection overnight, the medium was replaced with fresh medium and cultured for the next period.
(§3) DNA extraction, PCR amplification, and Sanger sequencing: After culturing for 72 hours, cells were washed with PBS, and then 100 μl of cell lysis buffer (Viagen, DirectPCR® Lysis Reagent (Cell)) was added for lysis to obtain a lysate containing genomic DNA. The genomic DNA was amplified in the region near the target sequence, and the PCR product was sent to a sequencing company for Sanger sequencing.

| Binder | relative indel editing efficiency |
| --- | --- |
| B1 | 1.19 fold of Cas12i-69 |
| B2 | 0.9 fold of Cas12i-69 |
| B3 | 7 fold of wild type |

Molecular target: T2, Cas12i-133
Experiment: cell_activity; 293T indels
Description: as §1, §2, §3

| Binder | relative indel editing efficiency |
| --- | --- |
| B1 | 4.95 fold of wild type |
| B2 | 0.78 fold of Cas12i-69 |
| B3 | 1.57 fold of wild type |
